According to publication PMC9376112, “XPC–PARP complexes engage the chromatin remodeler ALC1 to catalyze global genome DNA damage repair” (Nature Communications, 2022):

What was measured:
[1] = molecular target: T1, GFP-PARP2 (UniProt Q9UGN5-2 1-570); experiment: affinity purification with mass spectrometry; GFP pull-down of PARP1-GFP or GFP-PARP2 from U2OS (FRT) WT cells, label-free proteomics with iBAQ quantification; cells unirradiated or UV-C-irradiated (20 J/m^2, 1 h); details: partners not purified
T1 construct: also called PARP2-GFP; source: U2OS (FRT) WT, stably expressed (Flp-In, doxycycline-inducible), in lysate; not shown: GFP, N-terminal, kept

[2] = molecular target: T2, PARP1-GFP (UniProt P09874 1-1014); experiment: as above; details: partners not purified
T2 construct: source: U2OS (FRT) WT, stably expressed (Flp-In, doxycycline-inducible), in lysate; not shown: GFP, C-terminal, kept
T2 sequence (P09874 whole entry): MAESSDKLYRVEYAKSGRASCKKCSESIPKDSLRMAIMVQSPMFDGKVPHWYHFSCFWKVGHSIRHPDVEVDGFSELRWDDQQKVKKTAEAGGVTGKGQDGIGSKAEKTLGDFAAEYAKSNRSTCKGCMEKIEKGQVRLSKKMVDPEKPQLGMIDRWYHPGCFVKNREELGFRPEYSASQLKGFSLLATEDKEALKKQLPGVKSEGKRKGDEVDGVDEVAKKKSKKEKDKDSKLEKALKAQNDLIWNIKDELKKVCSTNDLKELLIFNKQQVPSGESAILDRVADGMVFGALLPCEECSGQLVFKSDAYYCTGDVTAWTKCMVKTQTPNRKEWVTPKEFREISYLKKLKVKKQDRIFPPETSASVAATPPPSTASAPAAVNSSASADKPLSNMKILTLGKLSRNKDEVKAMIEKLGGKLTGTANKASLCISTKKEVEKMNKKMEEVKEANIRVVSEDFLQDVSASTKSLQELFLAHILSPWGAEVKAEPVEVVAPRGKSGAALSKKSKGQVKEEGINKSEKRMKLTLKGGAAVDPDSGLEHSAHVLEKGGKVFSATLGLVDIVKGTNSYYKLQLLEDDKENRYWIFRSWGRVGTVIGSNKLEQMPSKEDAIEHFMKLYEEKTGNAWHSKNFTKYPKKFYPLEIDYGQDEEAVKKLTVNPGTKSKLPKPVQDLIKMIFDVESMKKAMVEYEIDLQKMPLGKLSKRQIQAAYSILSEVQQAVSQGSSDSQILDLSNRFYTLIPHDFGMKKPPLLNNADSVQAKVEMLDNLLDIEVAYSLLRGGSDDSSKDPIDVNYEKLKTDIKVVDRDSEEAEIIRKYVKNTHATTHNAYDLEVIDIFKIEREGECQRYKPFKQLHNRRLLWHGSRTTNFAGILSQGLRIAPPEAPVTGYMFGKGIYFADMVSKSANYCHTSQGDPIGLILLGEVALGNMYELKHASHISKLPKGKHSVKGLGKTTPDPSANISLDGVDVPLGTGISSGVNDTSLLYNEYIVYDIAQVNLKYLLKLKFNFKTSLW

T1 sequence (Q9UGN5 other isoform, or with tags, fused parts or gaps): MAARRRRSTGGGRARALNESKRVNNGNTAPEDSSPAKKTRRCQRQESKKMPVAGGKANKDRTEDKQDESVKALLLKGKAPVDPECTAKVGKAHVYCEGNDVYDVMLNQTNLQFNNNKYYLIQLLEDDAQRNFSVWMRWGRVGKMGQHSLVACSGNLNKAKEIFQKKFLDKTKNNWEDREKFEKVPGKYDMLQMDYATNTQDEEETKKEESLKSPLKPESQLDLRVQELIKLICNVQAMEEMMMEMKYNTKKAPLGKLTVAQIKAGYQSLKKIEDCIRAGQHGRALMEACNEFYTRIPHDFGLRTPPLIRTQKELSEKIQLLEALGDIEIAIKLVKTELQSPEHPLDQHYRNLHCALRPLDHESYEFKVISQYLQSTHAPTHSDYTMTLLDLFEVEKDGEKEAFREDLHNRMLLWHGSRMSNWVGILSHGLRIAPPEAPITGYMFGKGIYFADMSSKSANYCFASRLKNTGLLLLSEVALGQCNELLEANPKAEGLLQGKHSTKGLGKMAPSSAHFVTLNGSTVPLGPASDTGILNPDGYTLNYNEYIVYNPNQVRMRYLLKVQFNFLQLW

| fold, fraction of bait molecules associated with XPC, GFP-PARP2 against PARP1-GFP (iBAQ) [1] [fold] | percent of the isolated bait molecules associated with the prey (iBAQ) [1] [%] | percent of the isolated bait molecules associated with the prey (iBAQ) [2] [%] | Binder |
| --- | --- | --- | --- |
| 10 | – | – | XPC (endogenous) (natural protein, human (endogenous in U2OS), UniProt Q01831 1-940, looked up, XPC, endogenous in U2OS cells; source: endogenous, U2OS (FRT) WT lysate) MARKRAAGGEPRGRELRSQKSKAKSKARREEEEEDAFEDEKPPKKSLLSKVSQGKRKRGCSHPGGSADGPAKKKVAKVTVKSENLKVIKDEALSDGDDLRDFPSDLKKAHHLKRGATMNEDSNEEEEESENDWEEVEELSEPVLGDVRESTAFSRSLLPVKPVEIEIETPEQAKTRERSEKIKLEFETYLRRAMKRFNKGVHEDTHKVHLLCLLANGFYRNNICSQPDLHAIGLSIIPARFTRVLPRDVDTYYLSNLVKWFIGTFTVNAELSASEQDNLQTTLERRFAIYSARDDEELVHIFLLILRALQLLTRLVLSLQPIPLKSATAKGKKPSKERLTADPGGSSETSSQVLENHTKPKTSKGTKQEETFAKGTCRPSAKGKRNKGGRKKRSKPSSSEEDEGPGDKQEKATQRRPHGRERRVASRVSYKEESGSDEAGSGSDFELSSGEASDPSDEDSEPGPPKQRKAPAPQRTKAGSKSASRTHRGSHRKDPSLPAASSSSSSSKRGKKMCSDGEKAEKRSIAGIDQWLEVFCEQEEKWVCVDCVHGVVGQPLTCYKYATKPMTYVVGIDSDGWVRDVTQRYDPVWMTVTRKCRVDAEWWAETLRPYQSPFMDREKKEDLEFQAKHMDQPLPTAIGLYKNHPLYALKRHLLKYEAIYPETAAILGYCRGEAVYSRDCVHTLHSRDTWLKKARVVRLGEVPYKMVKGFSNRARKARLAEPQLREENDLGLFGYWQTEEYQPPVAVDGKVPRNEFGNVYLFLPSMMPIGCVQLNLPNLHRVARKLDIDCVQAITGFDFHGGYSHPVTDGYIVCEEFKDVLLTAWENEQAVIERKEKEKKEKRALGNWKLLAKGLLIRERLKRRYGPKSEAAAPHTDAGGGLSSDEEEGTSSQAEAARILAASWPQNREDEEKQKLKGGPKKTKREKKAAASHLFPFEQL |
| – | ~15 | 0.07 | ALC1 (endogenous) (enzyme, human (endogenous in U2OS), UniProt Q86WJ1 1-897, looked up, ALC1 (CHD1L), endogenous in U2OS cells; also called poly-(ADP-ribose)-dependent chromatin remodeler ALC1; the remodeler; source: endogenous, U2OS (FRT) WT lysate) MERAGATSRGGQAPGFLLRLHTEGRAEAARVQEQDLRQWGLTGIHLRSYQLEGVNWLAQRFHCQNGCILGDEMGLGKTCQTIALFIYLAGRLNDEGPFLILCPLSVLSNWKEEMQRFAPGLSCVTYAGDKEERACLQQDLKQESRFHVLLTTYEICLKDASFLKSFPWSVLVVDEAHRLKNQSSLLHKTLSEFSVVFSLLLTGTPIQNSLQELYSLLSFVEPDLFSKEEVGDFIQRYQDIEKESESASELHKLLQPFLLRRVKAEVATELPKKTEVVIYHGMSALQKKYYKAILMKDLDAFENETAKKVKLQNILSQLRKCVDHPYLFDGVEPEPFEVGDHLTEASGKLHLLDKLLAFLYSGGHRVLLFSQMTQMLDILQDYMDYRGYSYERVDGSVRGEERHLAIKNFGQQPIFVFLLSTRAGGVGMNLTAADTVIFVDSDFNPQNDLQAAARAHRIGQNKSVKVIRLIGRDTVEEIVYRKAASKLQLTNMIIEGGHFTLGAQKPAADADLQLSEILKFGLDKLLASEGSTMDEIDLESILGETKDGQWVSDALPAAEGGSRDQEEGKNHMYLFEGKDYSKEPSKEDRKSFEQLVNLQKTLLEKASQEGRSLRNKGSVLIPGLVEGSTKRKRVLSPEELEDRQKKRQEAAAKRRRLIEEKKRQKEEAEHKKKMAWWESNNYQSFCLPSEESEPEDLENGEESSAELDYQDPDATSLKYVSGDVTHPQAGAEDALIVHCVDDSGHWGRGGLFTALEKRSAEPRKIYELAGKMKDLSLGGVLLFPVDDKESRNKGQDLLALIVAQHRDRSNVLSGIKMAALEEGLKKIFLAAKKKKASVHLPRIGHATKGFNWYGTERLIRKHLAARGIPTYIYYFPRSKSAVLHSQSSSSSSRQLVP |
